Assay results taken from article PMC12130304.

Biological target: C-terminal, Twin-Strep-HA-tagged AVRA13-1 (Blumeria hordei)
Experiment: SEC + other: negative-stain TEM

“N-terminal, GST-tagged MLA13^K98E/K100E (receptor)” gave a stoichiometry N of 1.
